This passage reports protein production results from a protein production outcome set (Wang et al. 2014).

A short description of this series: label from the status in PepcDB records.
As to “MNSRAADQLELDGLPGTPPDFYRERQRSRVERYQSPAGAPLQCSVQVQTTQEHPLWTSHVWSGARALADTLCWQPELIAGKTVCELGAGAGLVSIVAFLAGADQVVATDYPDPEILNSLESNIREHTANSCSSETVKRASPKVVPYRWGDSPDSLQRCTGLQRFQVVLLADLLSFHQAHDALLRSVKMLLALPANDPTAVALVTFTHHRPHLAERDLAFFRLVNADGALIAEPWLSPLQMDPMFPDDPGDVCIRGQVHRWRLRWRSAASASANIPAHARNE”, the protein production entry is recorded as “not failed”.

In the case of “MEHSNLRKKHNYKFTISTLTLSCLMAFNAQAAVDCSPLEAWDAGKVYNGGEEVKQGTNAYKAKYWTQNNDPATAGEWGAWQDLGVCSGEVPNEAPTVDLTSPSATEQLTTGDLVTLTASAADSDGNIVRVDFSVDGVVISSVTASPYSTTWTALEGNHTISAQSYDDKGAQSTVSSVAINVTNTPTDNIAPTATLSLSATNVELGSVVTLTADAVDSDGTIDKVDFYIDNTLVGTAATAPYTLQYTTTAVGSLSVYAKATDNLGATANSASTNLTVTSSLPVADNCRPDGLYQTEGVTVPYCTIYDKEGREKMGADHPRRVIGYFTSWRDGGDEQNSYLVKDIPWEQLTHINYAFVSIGSDGKVNVGDVTDPNNAATGKEWAGVEIDPALGFKGHFGALATAKAKHGVKTLISIGGWAETGGHFGADGNRVADGGFYTMTTNADGSINHAAIEKFAVSAVEMMRKYKFDGLDIDYEYPTSMAGAGNPDDKEFMEPRRQYLWASYQVLMKTLREKLDVASAQDDIHYMLTIAAPSSGYLLRGMETFDVTQYLDYVNIMSYDLHGAWNDHVGHNAALYDTGKDSELAQWNVYGTEAYGGIGYLNTDWAYHYFRGSMPAGRINIGVPYYTRGWQGVTGGENGLWGRAPLPDQAKCEPGTGEGEKNNCGYGALGIDNMWHDKNSYGQEMGAGSNPMWHAKNLQEGIFGSYANIYGLDPANDPADQLVGTYTRHYDSVAVAPWLWNAEKKVFLSTEDKDSINVKADYVIDQEIGGIMFWELAGDYSCYVLDSNGNRTSVDATEAACQTGNGEYHMGNTMTKAIYEKFKSATPYGNTVATGAIPTETVDIAVNVGGFKVGDQNYPINPKVTFTNNTGQDIPGGTEFQFDIPVSAPDNAKDQSGGGLQVIASGHTRPNNIGGLDGTMHRVAFTLPAWKALPAGGVYELDMVYYLPISGPANYTVNINNVDYAFKFEQPDLPLADLSSGGNNGGNGGTPDAGCDATGLVTYPDLPQKDWAGNPSHANTGDQVVHNNVIYQANWWTAAEPGSDGSWTKVCNL”, the protein production result is “failed”. The result for “MSGFHYPGVPVTALLYSLWPLFALIVGGYALRRWDFPGEAFWPAAERLNYFILFPALLFSNLATAPLDDPGLARQALAVLLGLGVAWLALLLCKRWRGWDAGRFGAIAQGVLRFNTYLGLAAVGSLYGKPGLTLAALMLALMVPTVNVMSVWALTAERGISLRALLLPILKNPLILACLAGALVNLAGVGLPGGSDRLLNLLAVASLPLGLLCVGAALKPQELGGEVAALGWNCAARLLAMPLLAFAIARGLGLPSMESAVLVLFFALPTAPTAYVLTRQLGGDGHLMAGIITLQTLLSGATLVGVLLVLQGSP” reads “failed”; that for “SINKVLDHFRRKGINQHVQNGYHGIVMNNFECEPAFYTCVEVTAGNRLFYHIVDSDEVSTKILMEFNKMNLPGEVTFLPLNKLDVRDTAYPETNDAIPMISKLRYNPRFDKAFKHVFGKTLICRSMEVSTQLARAFTMDCITLEGDQVSHRGALTGGYYDTRKSRLELQKDVRKAEEELGELEA”, “failed”; that for “MNSKNTICLWYDSAALEAATFYAETFPDSAVLAVHRAPGDYPSGKEGDVLTVEFRVMGIPCLGLNGGPAFRHSEAFSFQVATDDQAETDRLWNAIVDNGGEESACGWCRDKWGISWQITPRVLSEAIASPDRAAARRAFEAMMTMGRIDIATIEKAFKG”, “not failed”.
